Reference: US20220177587A1, “METHODS AND USES OF VARIANT CD80 FUSION PROTEINS AND RELATED CONSTRUCTS” (Alpine Immune Sciences, Inc., priority 2018, published 2022)
Changes are numbered by the printed parent chain. Names may count otherwise.

B1: E35D/M47I: variant CD80 IgV-Fc, IgV SEQ ID NO:177 (protein)
chain: VIHVTKEVKEVATLSCGHNVSVEELAQTRIYWQKDKKMVLTMMSGDINIWPEYKNRTIFDITNNLSIVILALRPSDEGTYECVVLKYEKDAFKREHLAEVTLSVKAD
B2: V68M/L70M/A71D/E95K: variant CD80 IgV-Fc, IgV SEQ ID NO:210 (protein)
chain: B1 chain with D35E, I47M, V68M, L70M, A71D, E95K
B3: N55I/T57I/I69F: variant CD80 IgV-Fc, IgV SEQ ID NO:211 (protein)
chain: B1 chain with D35E, I47M, N55I, T57I, I69F
B4: E35D/A71D/L72V: variant CD80 IgV-Fc, IgV SEQ ID NO:200 (protein)
chain: B1 chain with I47M, A71D, L72V
B5: D46E/A71D: variant CD80 IgV-Fc, IgV SEQ ID NO:222 (protein)
chain: B1 chain with D35E, D46E, I47M, A71D
B6: I30T/L70R: variant CD80 IgV-Fc, IgV SEQ ID NO:154 (protein)
chain: B1 chain with I30T, D35E, I47M, L70R
B7: H18Y/A71D/L72P/E88V: variant CD80 IgV-Fc, IgV SEQ ID NO:214 (protein)
chain: B1 chain with H18Y, D35E, I47M, A71D, L72P, E88V
B8: E23D/M42V/M43I/I58V/L70R: variant CD80 IgV-Fc, IgV SEQ ID NO:209 (protein)
chain: B1 chain with E23D, D35E, M42V, M43I, I47M, I58V, L70R
B9: E35D/I67L/A71D: variant CD80 IgV-Fc, IgV SEQ ID NO:195 (protein)
chain: B1 chain with I47M, I67L, A71D
B10: T13R/M42V/M47I/A71D: variant CD80 IgV-Fc, IgV SEQ ID NO:197 (protein)
chain: B1 chain with T13R, D35E, M42V, A71D
B11: V20I/A71D: variant CD80 IgV-Fc, IgV SEQ ID NO:215 (protein)
chain: B1 chain with V20I, D35E, I47M, A71D
B12: Q27L/E35D/M47I/T57I/L70Q/E88D: variant CD80 IgV-Fc, IgV SEQ ID NO:204 (protein)
chain: B1 chain with Q27L, T57I, L70Q, E88D
B13: Y31H/E35D/T41S/V68L/K93R/R94W: variant CD80 IgV-Fc, IgV SEQ ID NO:223 (protein)
chain: B1 chain with Y31H, T41S, I47M, V68L, K93R, R94W
B14: V22L/E35D/M43L/A71G/D76H: variant CD80 IgV-Fc, IgV SEQ ID NO:218 (protein)
chain: B1 chain with V22L, M43L, I47M, A71G, D76H
B15: A12T/E24D/E35D/D46V/I61V/L72P/E95V: variant CD80 IgV-Fc, IgV SEQ ID NO:217 (protein)
chain: B1 chain with A12T, E24D, D46V, I47M, I61V, L72P, E95V
B16: E35D/T57A/A71D/L85Q: variant CD80 IgV-Fc, IgV SEQ ID NO:206 (protein)
chain: B1 chain with I47M, T57A, A71D, L85Q
B17: M47V/I69F/A71D/V831: variant CD80 IgV-Fc, IgV SEQ ID NO:205 (protein)
chain: B1 chain with D35E, I47V, I69F, A71D, V83I
B18: A26P/E35D/M43I/L85Q/E88D: variant CD80 IgV-Fc, IgV SEQ ID NO:202 (protein)
chain: B1 chain with A26P, M43I, I47M, L85Q, E88D
B19: T41S/T57I/L70R: variant CD80 IgV-Fc, IgV SEQ ID NO:213 (protein)
chain: B1 chain with D35E, T41S, I47M, T57I, L70R
B20: L70Q/A71D: variant CD80 IgV-Fc, IgV SEQ ID NO:220 (protein)
chain: B1 chain with D35E, I47M, L70Q, A71D
B21: E35D/M43I/A71D: variant CD80 IgV-Fc, IgV SEQ ID NO:212 (protein)
chain: B1 chain with M43I, I47M, A71D
B22: Q27H/E35G/A71D/L72P/T791: variant CD80 IgV-Fc, IgV SEQ ID NO:196 (protein)
chain: B1 chain with Q27H, D35G, I47M, A71D, L72P, T79I

Target: T1, CD28 (Homo sapiens, UniProt P10747)
Test: Jurkat/IL2 + CHO/OKT3 +/- PD-L1 reporter assay: PD-L1-dependent CD28 costimulation
Assay type: cell-based
Set-up: host or cells: Jurkat cells expressing an IL-2-luciferase reporter
Conditions: CHO/OKT3/PD-L1 aAPC; 0.6 nM; luciferase signal
Summary of the method: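 Jurkat reporter cells (100,000/well) preincubated 15 min at room temperature with test protein, then cocultured 5 h at 37 °C with CHO aAPCs bearing anti-CD3 scFv (OKT3) with or without PD-L1. Luciferase luminescence (RLU) read after lysis-substrate addition.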

PD-L1-Dependent CD28 Costimulation, +PD-L1, 0.6 nM | Molecule
1047 | B1

Same assay, conditions: CHO/OKT3/PD-L1 aAPC; 50 nM; luciferase signal

PD-L1-Dependent CD28 Costimulation, +PD-L1, 50 nM | Molecule
3778 | B1

Same assay, conditions: CHO/OKT3 aAPC, no PD-L1; 50 nM; luciferase signal

PD-L1-Dependent CD28 Costimulation, No PD-L1, 50 nM | Molecule
894 | B1

Same assay, conditions: CHO/OKT3 aAPC, no PD-L1; […]; luciferase signal

PD-L1-Dependent CD28 Costimulation, No PD-L1, […] | Molecule
637 | B1

Target: T1, CD28
Test: Jurkat/IL2 reporter assay: blockade of CD28 costimulation (plate-bound anti-CD3/CD86-Fc)
Assay type: cell-based
Set-up: host or cells: Jurkat cells expressing an IL-2-luciferase reporter
Conditions: Table E5; protein diluted to 40 nM before mixing with cells; 5 hours
Protocol: The day before the assay, the assay plate was prepared. […] The plate was incubated overnight at 4° C. to allow the antibody and CD86-Fc protein to adhere to the surface of the plate. The next day, the wells of the assay plate were washed twice with 150 μL PBS prior to the assay.
Jurkat effector cells expressing IL-2-luciferase reporter were counted and resuspended in assay buffer to a concentration of 2×10^6 cells/mL. 60 μL of the Jurkat cell suspension were then added to the wells containing the CD80-Fc fusion molecules or controls. The cells and CD80 proteins were incubated at room temperature for 15 minutes and then 100 μL of the cell/CD80 protein mixture were transferred/well of the prepared anti-CD3/CD86-Fc assay plate.
The assay plate was briefly spun down (10 seconds at 1200 RPM) and incubated at 37° C. for 5 hours. After the 5 hour incubation, the plate was removed and equilibrated to room temperature for 15 minutes. 100 μL of Bio-Glo (Promega) were added/well of the assay plate, which was then placed on an orbital shaker for 10 minutes. Luminescence was measured with a 1 second per well integration time using a BioTek Cytation 3 luminometer.

Average Relative Luminescence Units | Molecule
1444 Relative Luminescence Units | B1
2067 Relative Luminescence Units | B2
1915 Relative Luminescence Units | B3
1152 Relative Luminescence Units | B4
490 Relative Luminescence Units | B5
3236 Relative Luminescence Units | B6
1354 Relative Luminescence Units | B7
4460 Relative Luminescence Units | B8
1223 Relative Luminescence Units | B9
759 Relative Luminescence Units | B10
2165 Relative Luminescence Units | B11
1180 Relative Luminescence Units | B12
3678 Relative Luminescence Units | B13
2004 Relative Luminescence Units | B14
2408 Relative Luminescence Units | B15
3213 Relative Luminescence Units | B16
290 Relative Luminescence Units | B17
4078 Relative Luminescence Units | B18
3641 Relative Luminescence Units | B19
1036 Relative Luminescence Units | B20
3019 Relative Luminescence Units | B21
2000 Relative Luminescence Units | B22
